From patent publication US7977317B2, “Compositions and methods for modulating blood-brain barrier transport” (Raptor Pharmaceutical Inc., priority 2001, dated 2011) come the findings set out here.

This test has as its system LRP1B. In words: RT-PCR after p97 and RAP treatments in U-87 cells: LRP1B. The class given is cell-based, human. Conditions: 72 hours, RT-PCR (FIG. 35). As to the method:
FIG. 34. Effect of p97 and RAP treatments in U-87 cells. A. Cells (2×10^5) were plated onto six-multiwell microplates and grown at 37° C. under 5% CO2 with optimal culture medium supplemented with serum for 4 days. Treatment was performed in serum free medium for 72 hours. RNA isolation and RT-PCR were performed as described in the Examples. B. LRP/LRP1B was immunodetected in cells lysates as described in the Examples. […] (N=2 for p97 treatment), (n=1 for RAP treatment)
FIG. 35. Effect of p97 and RAP treatments in U-87 cells (RT-PCR). Cells (2×10^5) were plated onto six-multiwell microplates and grown at 37° C. under 5% CO2 with optimal culture medium supplemented with serum for 4 days. Treatment was performed in serum free medium for 72 hours. RNA isolation and RT-PCR were performed as described in the Examples. The amplified PCR products were electrophoresed on a 2% agarose gel and visualized under ultraviolet light. (n=2 for p97), (n=1 for RAP)
RNA extraction. Cells in six-wells plate or in 75 cm^2 plastic tissue culture flasks were grown at 37° C. under 5% CO2 with optimal culture medium to 80-90% confluence. Total cellular RNA was preserved in Trizol (Gibco BRL, Burlington, ON). The solution are frozen at −80° C. until extraction. The solution was defroze and mixed with 5:1 chloroform for 3 minutes at room temperature. The suspension was centrifugated at 12000 g at 4° C. […]

B1: p97: recombinant human melanotransferrin (p97), provided by Synapse Technologies (protein, UniProt P08582 20-709, looked up)
Melanotransferrin: GMEVRWCATSDPEQHKCGNMSEAFREAGIQPSLLCVRGTSADHCVQLIAAQEADAITLDGGAIYEAGKEHGLKPVVGEVYDQEVGTSYYAVAVVRRSSHVTIDTLKGVKSCHTGINRTVGWNVPVGYLVESGRLSVMGCDVLKAVSDYFGGSCVPGAGETSYSESLCRLCRGDSSGEGVCDKSPLERYYDYSGAFRCLAEGAGDVAFVKHSTVLENTDGKTLPSWGQALLSQDFELLCRDGSRADVTEWRQCHLARVPAHAVVVRADTDGGLIFRLLNEGQRLFSHEGSSFQMFSSEAYGQKDLLFKDSTSELVPIATQTYEAWLGHEYLHAMKGLLCDPNRLPPYLRWCVLSTPEIQKCGDMAVAFRRQRLKPEIQCVSAKSPQHCMERIQAEQVDAVTLSGEDIYTAGKTYGLVPAAGEHYAPEDSSNSYYVVAVVRRDSSHAFTLDELRGKRSCHAGFGSPAGWDVPVGALIQRGFIRPKDCDVLTAVSEFFNASCVPVNNPKNYPSSLCALCVGDEQGRNKCVGNSQERYYGYRGAFRCLVENAGDVAFVRHTTVFDNTNGHNSEPWAAELRSEDYELLCPNGARAEVSQFAACNLAQIPPHAVMVRPDTNIFTVYGLLDKAQDLFGDDHNKNGFKMFDSSNYHGQDLLFKDATVRAVPVGEKTTYRGWLGLDYVAALEGMSSQQC
Take B1: the “Expression of the LRP1B receptor” value is on record as “induces the expression”.
